From patent US20210220432A1, “Application of Polypeptide in Preparation of Composition for Preventing and Treating Human Papillomavirus Infection” (GENLOCI BIOTECHNOLOGIES INC., priority 2018, published 2021)
No end group written: not given here.

What was measured:
HPV = conditions: literature study; HD6 at the highest cytotoxic dose; cited from earlier work
HPV-16 L1 protein = target: T1, HPV-16 L1 protein (Human papillomavirus type 16, UniProt P03101); assay: Biomolecular interaction analysis (SPR, Biacore 3000) of the polypeptide with HPV-16 L1 protein; format: binding
T1 construct: purchased Abcam ab119880
Source text: Biomolecular interaction analysis (BIA) is a biosensing analysis technology based on a physical optical phenomenon known as surface plasmon resonance (SPR). BIA can provide real-time observation of the interaction between biomolecules, through which, the binding specificity of two molecules can be observed, how strong the binding of the two molecules is can be known, and how many cooperators and participants there are in the binding process of biomolecules can be known.
In this experiment, BIA technology is used to observe whether there is an interaction between the polypeptide of the present invention and the HPV L1 protein, so as to explore the mechanism of inhibiting HPV virus by the polypeptide.
3. […]
(5) The coupling effect is automatically calculated by the software. In the experiment, the experimental channel is finally coupled with about 5300 RU of HPV-16 L1 Protein, where the unit RU is the unit of coupling quantity defined by the system. […]
(8) The program is designed according to the steps of equilibration, testing, equilibration, and regeneration, and the polypeptide solution of each concentration was detected. […] During the detection, the sample passes through the blank channel and the experimental channel in turn, and the data to be detected is the resultant difference of “experimental channel response value minus blank channel response value”. […]

[1] = target: T2, HPV-16 L1 protein (Cat. No. ab119880, Abcam), recombinantly expressed (human papillomavirus type 16), P03101; assay: SPR, Biacore 3000, HPV-16 L1 amine-coupled on chip, polypeptide as analyte
T2 chain: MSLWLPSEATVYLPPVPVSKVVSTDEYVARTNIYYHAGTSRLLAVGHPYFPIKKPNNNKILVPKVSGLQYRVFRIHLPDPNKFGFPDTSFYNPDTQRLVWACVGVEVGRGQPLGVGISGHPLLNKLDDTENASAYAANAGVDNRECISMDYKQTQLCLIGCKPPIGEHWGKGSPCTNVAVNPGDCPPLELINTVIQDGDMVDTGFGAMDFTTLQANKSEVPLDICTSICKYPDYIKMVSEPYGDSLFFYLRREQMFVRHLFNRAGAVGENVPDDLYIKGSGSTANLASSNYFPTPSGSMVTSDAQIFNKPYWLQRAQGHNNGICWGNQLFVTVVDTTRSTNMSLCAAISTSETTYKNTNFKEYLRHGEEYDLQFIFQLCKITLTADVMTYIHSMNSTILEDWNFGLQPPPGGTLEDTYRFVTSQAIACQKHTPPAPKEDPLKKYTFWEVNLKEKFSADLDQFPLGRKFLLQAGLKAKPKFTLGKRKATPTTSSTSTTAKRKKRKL

Question: With “HD6: human α-defensin secreted by human Paneth cells (AFTCHCRRSCYSTEYSYGTCTVMGINHRFCCL; ends and bridges not checked; cysteine pairing not given here; UniProt Q01524 69-100, looked up) [reference compound]” as the molecule, how does the “Activity against HPV” value (HPV) read?
Answer: inactive

Question: For MGRFKRFRKKFKKLFKKLS [The polypeptide], which Kd (HPV-16 L1 protein; KD, Affinity constant, SPR, kinetic analysis, HPV-16 L1 protein) is on record?
Answer: 782 pM

Question: And the kon (HPV-16 L1 protein; read-out: ka, Binding constant)?
Answer: 2.35e+06 M⁻¹ s⁻¹

B1: HD5: human α-defensin secreted by human Paneth cells (peptide, UniProt Q01523 20-94, looked up)
Defensin alpha 5: ESLQERADEATTQKQSGEDNQDLAISFAGNGLSALRTSGSQARATCYCRTGRCATRESLSGVCEISGRLYRLCCR
modifications: Defensin-5
notes: human α-defensin secreted by human Paneth cells
Question: Which “Activity against HPV” value (HPV) does the source give for B1 here?
Answer: inhibiting HPV activity

Question: Which Kd [1] does the source give for MGRFKRFRKKFKKLFKKLS (modifications not checked) [the polypeptide of the present invention (antimicrobial polypeptide, SEQ ID NO: 1)] here?
Answer: 782 pM

Question: What about the koff [1] of the same molecule?
Answer: 0.00184 s⁻¹

Question: And the kon [1]?
Answer: 2.35e+06 M⁻¹ s⁻¹
